Measured values from US20060104978A1, “Methods and compositions for PDGF-C activation and inhibition” (LUDWIG INSTITUTE FOR CANCER RESEARCH, priority 2003, published 2006).

B1: CUB domain: free CUB domain of PDGF-C; recombinant His6-tagged (residues 23-163) or c-myc-tagged (residues 1 to 165) (protein)
chain: ESNLSSKFQFSSNKEQNGVQDPQHERIITVSTNGSIHSPRFPHTYPRNTVLVWRLVAVEENVWIQLTFDERFGLEDPEDDICKYDFVEVEEPSDGTILGRWCGSGTVPGKQISKGNQIRIRFVSDEYFPSEPGFCIHYNIVHHHHHH
B2: activated PDGF-CC: activated PDGF-CC protein, growth factor without CUB domains (protein)
chain: GRKSRVVDLNLLTEEVRLYSCTPRNFSVSIREELKRTDTIFWPGCLLVKRCGGNCACCLHNCNECQCVPSKVTKKYHEVLQLRPKTGVRGLHKSLTDVALEHHEECDCVCRGSTGG

Key:
tPA [1] = test: Cotransfection assay in COS-1 cells: PDGF-CC forms and mutants coexpressed with tPA; format: cell-based, human; settings: over-expression of free CUB domain (CUBc-myc) with full-length PDGF-C and tPA in COS-1 cells
Chain of tPA (P00750 36-562): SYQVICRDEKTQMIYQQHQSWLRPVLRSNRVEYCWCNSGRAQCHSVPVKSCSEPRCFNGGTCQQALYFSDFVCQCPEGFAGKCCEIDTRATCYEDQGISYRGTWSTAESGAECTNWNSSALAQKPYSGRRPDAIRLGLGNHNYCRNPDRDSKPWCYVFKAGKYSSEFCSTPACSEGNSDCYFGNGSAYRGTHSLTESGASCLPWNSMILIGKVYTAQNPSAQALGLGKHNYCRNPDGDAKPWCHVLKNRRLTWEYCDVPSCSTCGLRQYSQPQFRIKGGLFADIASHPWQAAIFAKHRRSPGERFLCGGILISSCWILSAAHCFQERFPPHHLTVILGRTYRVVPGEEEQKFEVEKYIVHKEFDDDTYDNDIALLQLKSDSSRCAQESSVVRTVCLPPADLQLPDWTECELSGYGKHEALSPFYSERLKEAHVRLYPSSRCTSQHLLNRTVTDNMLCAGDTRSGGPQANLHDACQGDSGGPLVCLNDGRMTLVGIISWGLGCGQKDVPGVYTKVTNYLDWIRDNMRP
Source text: The structural requirements for recognition of full-length PDGF-CC as a substrate for tPA were mapped by analysis of several mutated forms of PDGF-CC using the co-transfection assay. The mutants of PDGF-CC included a chimeric form of PDGF-C carrying the CUB domain from PDGF-D and the hinge region and growth factor domain of PDGF-C (mutant PDCUBPC), and several truncation mutants lacking the CUB domain and increasing parts of the hinge region (schematically illustratrated in FIG. 6A). All mutants were properly expressed in transfected COS-1 cells, formed disulfide-linked dimers (data not shown), and were efficiently secreted, except truncation mutant Δ190 that was expressed at a lower level in the conditioned medium (FIG. 6B).
A conserved site of four amino acids containing three basic amino-acid residues (amino-acid residues -R-K-S-R-) was previously identified as a potential site for proteolytic activation of latent PDGF-CC (Li et al, 2000). […]
To test the endogenous expression of PDGF-CC, subconfluent AG1523 cells and primary fibroblast cultures were cultured in serum-free DMEM overnight. […] In the case of the primary cultures, total protein concentration was measured and normalized (Bradford, 1976). […] PDGF-C and PDGF-D were detected by immunoblotting using affinity-purified polyclonal rabbit antibodies against PDGF-C (Li et al, 2000) and PDGF-D (Bergsten et al, 2001), respectively. […]

tPA [2] = test: Ni-NTA pull-down of purified tPA by His6-tagged recombinant proteins; format: binding, human; settings: Ni-NTA beads coated with His6-tagged protein, 1 μg purified tPA, 2 hours room temperature, eluted with imidazole
Procedure: The possibility of a direct protein-protein interaction between tPA and latent PDGF-CC was explored by developing a pull-down assay. Ni-NTA beads were allowed to bind recombinant His6-tagged latent PDGF-CC or PDGF-DD, and purified tPA was added and incubated. Following extensive washings, bound proteins were subsequently eluted with an imidazole-containing buffer, and the eluates were analyzed by immunoblotting using specific antibodies.
To determine a direct protein-protein interaction between tPA and PDGF-CC, His6-tagged recombinant protein species were bound to Ni-NTA-agarose (Qiagen) and then incubated with 1 μg of purified tPA for 2 hours at room temperature. Uncoated and PDGF-DD coated Ni-NTA beads were used as controls. The beads were washed thoroughly, and His6-tagged proteins were specifically eluted with 400 mM imidazole. Eluted proteins were analyzed by SDS-PAGE under reducing conditions and immunoblotted with antibodies against human tPA (see above). The membranes were subsequently stripped and reprobed with specific antibodies.

[3] = cornea pocket model; cited from earlier work
PDGFR-α = molecular target: T1, PDGFR-α (Mus musculus, UniProt P26618); test: PDGFR-α tyrosine phosphorylation in primary fibroblasts; format: cell-based; settings: 100 ng/ml activated PDGF-CC protein
T1 construct: endogenous in cells; host or cells: primary mouse kidney and lung fibroblasts
T1 sequence (P26618 25-1089): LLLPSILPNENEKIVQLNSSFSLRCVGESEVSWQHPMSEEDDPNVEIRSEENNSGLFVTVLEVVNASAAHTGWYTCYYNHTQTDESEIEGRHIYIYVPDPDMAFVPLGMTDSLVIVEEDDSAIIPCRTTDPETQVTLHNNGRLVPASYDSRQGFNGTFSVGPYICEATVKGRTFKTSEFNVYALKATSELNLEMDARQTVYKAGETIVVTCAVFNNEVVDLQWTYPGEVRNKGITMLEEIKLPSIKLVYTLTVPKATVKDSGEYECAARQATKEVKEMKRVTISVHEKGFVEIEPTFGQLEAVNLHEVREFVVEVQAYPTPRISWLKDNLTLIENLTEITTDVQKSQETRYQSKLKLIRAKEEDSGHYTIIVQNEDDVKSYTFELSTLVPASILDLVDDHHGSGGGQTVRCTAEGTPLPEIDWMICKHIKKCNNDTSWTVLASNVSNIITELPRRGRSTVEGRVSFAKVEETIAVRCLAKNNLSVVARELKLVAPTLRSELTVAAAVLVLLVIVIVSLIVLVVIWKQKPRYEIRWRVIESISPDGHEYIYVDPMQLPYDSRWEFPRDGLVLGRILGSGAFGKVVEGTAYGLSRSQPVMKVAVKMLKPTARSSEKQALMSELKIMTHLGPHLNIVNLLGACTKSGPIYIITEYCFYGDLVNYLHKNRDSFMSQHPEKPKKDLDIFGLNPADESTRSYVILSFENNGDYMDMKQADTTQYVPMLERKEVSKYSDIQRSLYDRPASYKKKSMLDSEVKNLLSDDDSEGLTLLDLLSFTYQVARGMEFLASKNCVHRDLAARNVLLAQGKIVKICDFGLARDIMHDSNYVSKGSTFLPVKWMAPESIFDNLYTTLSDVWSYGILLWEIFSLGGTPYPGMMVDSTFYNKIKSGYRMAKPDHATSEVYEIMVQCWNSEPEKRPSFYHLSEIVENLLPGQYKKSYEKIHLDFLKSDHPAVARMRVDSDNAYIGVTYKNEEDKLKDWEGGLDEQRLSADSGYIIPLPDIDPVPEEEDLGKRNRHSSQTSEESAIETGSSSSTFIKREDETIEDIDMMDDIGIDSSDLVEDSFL
Procedure: It is known that constitutive activation of PDGFRs by PDGFs leads to receptor desensitization (Heldin and Westermark, 1999), and therefore it was investigated whether the differences observed in growth between the wild-type and tPA-deficient fibroblasts upon PDGF-CC treatment were due to differential activation of PDGFR-α. Recombinant PDGF-CC protein was applied onto the primary fibroblasts and receptor activation was measured as induction of PDGFR-α tyrosine phosphorylation (FIG. 7D, upper panel).
To monitor growth factor-induced tyrosine phosphorylation of PDGFR-α, serum-starved PAE cells stably expressing human PDGFR-α were incubated for 120 min on ice with conditioned medium from COS-1 cells transfected with full-length PDGF-C in the absence or presence of tPA. Alternatively, primary wild-type and tPA-deficient fibroblasts were stimulated with 100 ng/ml activated PDGF-CC protein. The cells were lysed as described previously (Li et al, 2000) and PDGFR-α was immunoprecipitated using a specific antiserum (Eriksson et al, 1992). Precipitated proteins were separated by SDS-PAGE under reducing conditions. Tyrosinephosphorylated receptors were detected by immunoblotting using an antiphosphotyrosine antibody (PY99, Santa Cruz). The membranes were stripped and reprobed using a polyclonal antibody against the C-terminal of the PDGFRs (CED) to detect receptor expression levels.

[4] = tested on: wild-type and tPA-deficient fibroblasts; test: BrdU incorporation in primary fibroblasts; format: cell-based, mouse; settings: 50 ng/ml, 24 hours BrdU labeling
Procedure: Cell nuclei were visualized with 4′,6-diamidine-2′-phenylindole dihydrochloride (DAPI), and BrdU-labeled cells were determined by immunofluorescence using antibodies to BrdU (FIG. 7B).
(§1) To monitor cell growth, both the cell proliferation reagent WST-1 (Roche) and BrdU (Sigma) were used. A total of 0.4×10^4 (WST-1) or 1×10^4 (BrdU) wild-type and tPA-deficient fibroblasts were seeded in triplicate-hexaplicate, and after attachment they were serum-starved overnight. Serum-starved cells were counted (WST-1 seeding control) and alternatively incubated for 24 hours in serum-free medium supplemented with 1 mg/ml BSA, and 50 μM BrdU in the BrdU experiment, in the absence or presence of 50 ng/ml activated PDGF-CC or tPA protein (#116, American Diagnostica Inc.). Upon counting, WST-1 reagent was added and measured according to the manufacturer's protocol using an ELISA reader. In the BrdU experiment, the cells were fixed in 4% paraformaldehyde in PBS for 30 min at room temperature and the DNA was denatured in 2M HCl for 20 min at room temperature and then blocked in 0.5% BSA, 0.5% Tween, and 10% goat serum in PBS. […] Quantification of the BrdU-positive cells was performed by counting all cells along the vertical and horizontal diameters of all wells.

[5] = tested on: tPA-deficient fibroblasts; test: WST-1 growth assay of primary fibroblasts in serum-free medium; format: cell-based, mouse; settings: 50 ng/ml added to serum-free culture medium, 24 hours
Procedure: It was observed that primary fibroblasts derived from tPA-deficient mice grew more slowly in culture than fibroblasts derived from wild-type animals, raising the possibility that activation of latent PDGF-CC by tPA generated autocrine and paracrine growth stimulatory loops for primary fibroblasts in culture. To analyze this effect, isolated wild-type and tPA-deficient fibroblasts were serum-starved overnight, and the growth of the cells during the next 24 hours was monitored using an enzyme-based viability assay (see Example 8, Materials and Methods).
as §1, with “reader.” for “reader. In the BrdU experiment, the cells were fixed in 4% paraformaldehyde in PBS for 30 min at room temperature and the DNA was denatured in 2M HCl for 20 min at room temperature and then blocked in 0.5% BSA, 0.5% Tween, and 10% goat serum in PBS.”

Molecule | competition for tPA-mediated processing of latent PDGF-CC (tPA [1]) | binding of tPA in pull-down (tPA [2]) | neoangiogenesis [3] | induction of PDGFR-α tyrosine phosphorylation, tPA-deficient versus wild-type fibroblasts (PDGFR-α) | BrdU incorporation in tPA-deficient cells ([4]; serum-starved tPA-deficient fibroblasts) | BrdU incorporation in wild-type cells ([4]; serum-starved wild-type fibroblasts) | rescue of growth of tPA-deficient fibroblasts [5]
B1 | efficiently competed for the interaction and processing of latent PDGF-CC by tPA | both domains were able to interact with tPA | – | – | – | – | –
B2 | – | – | strong inducer of neoangiogenesis | more pronounced in the tPA-deficient cells as compared to wild type | strongly stimulated BrdU incorporation in the tPA-deficient cells | had less effect on wild-type cells | allowed the cells to grow similar to the wild-type fibroblasts
